According to PMC8897410:

Columns and labels:
FimT Lp [1] = target: T1, FimT Lp (Legionella pneumophila, UniProt Q5ZVL2 38-162); assay: ITC; 50 mM Tris-HCl pH 7.2, 50 mM NaCl; […]; ITC 30 C; MST 50-150 mM NaCl, 0.05% Tween-20, […]; details: protein: recombinant; tags: His6-SUMO cleaved; blunt
FimT Lp [2] = target: T1, FimT Lp; assay: NMR titration; 50 mM NaCl; 50 mM Tris-HCl pH 7.2, 50 mM NaCl; […]; ITC 30 C; MST 50-150 mM NaCl, 0.05% Tween-20, […]; details: protein: recombinant; tags: His6-SUMO cleaved; blunt
FimU Lp = FimU Lp (Legionella pneumophila, UniProt Q5ZXU9 96-235); assay: EMSA; up to 100 uM protein; 50 mM Tris-HCl pH 7.2, 50 mM NaCl; […]; ITC 30 C; MST 50-150 mM NaCl, 0.05% Tween-20, […]; details: protein: recombinant; tags: His6-SUMO cleaved; blunt
PilA1 Lp = PilA1 Lp (Legionella pneumophila, UniProt Q5ZU93 35-142); assay: as above; details: protein: recombinant; tags: His6 cleaved (PreScission); blunt
PilA2 Lp = PilA2 Lp (Legionella pneumophila, UniProt Q5ZU92 34-140); assay: as above; details: protein: recombinant; tags: His6 cleaved (PreScission); blunt
FimT Lp [3] = target: T1, FimT Lp; assay: EMSA; Kd stated as low uM range; 50 mM Tris-HCl pH 7.2, 50 mM NaCl; […]; ITC 30 C; MST 50-150 mM NaCl, 0.05% Tween-20, […]; details: protein: recombinant; tags: His6-SUMO cleaved; blunt
FimT Pa = FimT Pa (Pseudomonas aeruginosa PAO1, UniProt Q9HVN0 36-169); assay: EMSA; affinity same order of magnitude as FimT Lp; 50 mM Tris-HCl pH 7.2, 50 mM NaCl; […]; ITC 30 C; MST 50-150 mM NaCl, 0.05% Tween-20, […]; details: protein: recombinant; tags: His6-SUMO cleaved; blunt
FimT Xc = FimT Xc (Xanthomonas campestris pv. campestris …, UniProt Q8P7X0 39-183); assay: as above; details: protein: recombinant; tags: His6-SUMO cleaved; blunt
FimT Lp [4] = target: T1, FimT Lp; assay: MST/TRIC; 50 mM NaCl; 50 mM Tris-HCl pH 7.2, 50 mM NaCl; […]; ITC 30 C; MST 50-150 mM NaCl, 0.05% Tween-20, […]; details: protein: recombinant; tags: His6-SUMO cleaved; label: 5'-FAM on one strand; blunt
FimT Lp [5] = target: T1, FimT Lp; assay: ITC; 50 mM NaCl, 30 C; N 1.09; 50 mM Tris-HCl pH 7.2, 50 mM NaCl; […]; ITC 30 C; MST 50-150 mM NaCl, 0.05% Tween-20, […]; details: protein: recombinant; tags: His6-SUMO cleaved
FimT Lp [6] = target: T1, FimT Lp; assay: EMSA; 50 mM Tris-HCl pH 7.2, 50 mM NaCl; […]; ITC 30 C; MST 50-150 mM NaCl, 0.05% Tween-20, […]; details: protein: recombinant; tags: His6-SUMO cleaved

B1: 12mer dsDNA (dsDNA)
DNA 1: GTTCGCAACGAA
DNA 2: TTCGTTGCGAAC
For B1, the Kd (FimT Lp [1]) was 2.8 ± 0.2 µM and the Kd (FimT Lp [2]) was ~8.1 µM.

B2: 30mer dsDNA (dsDNA)
DNA 1: TTAAATAGGCTTGGCAGGGTTAGGGTAGGG
DNA 2: CCCTACCCTAACCCTGCCAAGCCTATTTAA
B2: no binding (FimU Lp); no binding (PilA1 Lp); no binding (PilA2 Lp). B2: binds (FimT Lp [3]); binds (FimT Pa); binds (FimT Xc).

B3: FAM-12mer dsDNA (dsDNA)
DNA 1: GTTCGCAACGAA
DNA 2: TTCGTTGCGAAC
B3 gave a Kd (FimT Lp [4]) of 6.3 ± 0.9 µM.

GTTCGCAACGAA (ssDNA) [12mer ssDNA] gave a Kd (FimT Lp [5]) of 7 ± 0.3 µM.

TTAAATAGGCTTGGCAGGGTTAGGGTAGGG (ssDNA) [30mer ssDNA]: binds (FimT Lp [6]).
